According to article PMC5052520, “The Important Role of Halogen Bond in Substrate Selectivity of Enzymatic Catalysis” (Scientific Reports, 2016):

Tests used:
Assay in all cases: hydrolysis kinetics, product by liquid chromatography
Assay type in all cases: biochemical, Synechocystis sp. PCC 6803
[1] = system: N#CCc1cccc(Cl)c1
From the text: (§1) hydrolysis kinetics, product by liquid chromatography on nitrilase (WT)

[2] = system: N#CCc1ccccc1Cl
From the text: as §1

[3] = system: N#CCc1ccc(Cl)cc1
From the text: as §1

Substance | Km [1] | kcat [1] | kcat/Km [1] | Km [2] | kcat [2] | kcat/Km [2] | Km [3] | kcat [3] | kcat/Km [3]
nitrilase (WT) (Synechocystis sp. PCC 6803 substr. Kazusa) | 460 ± 40 µM | 0.27 ± 0.02 s⁻¹ | 590 M⁻¹ s⁻¹ |  |  |  |  |  | 
nitrilase (WT) (Synechocystis sp. PCC 6803 substr. Kazusa; H141W) |  |  |  | 650 ± 180 µM | 0.21 ± 0.05 s⁻¹ | 330 M⁻¹ s⁻¹ |  |  | 
nitrilase (WT) (Synechocystis sp. PCC 6803 substr. Kazusa; T54Y) | 9600 ± 270 µM | 0.08 ± 0.13 s⁻¹ | 10 M⁻¹ s⁻¹ |  |  |  | 710 ± 30 µM | 0.56 ± 0.07 s⁻¹ | 560 M⁻¹ s⁻¹
